Results on 31 substances are retold here after patent US20140087991A1, “PEPTIDE PRODRUGS” (The Johns Hopkins University, priority 2006, published 2014).

This assay has as its target T1, FAP (Homo sapiens, UniProt Q12884).
T1 construct: the extracellular domain of FAP was cloned with a His-6 tag; made in house
T1 sequence (Q12884 26-760 limits assumed): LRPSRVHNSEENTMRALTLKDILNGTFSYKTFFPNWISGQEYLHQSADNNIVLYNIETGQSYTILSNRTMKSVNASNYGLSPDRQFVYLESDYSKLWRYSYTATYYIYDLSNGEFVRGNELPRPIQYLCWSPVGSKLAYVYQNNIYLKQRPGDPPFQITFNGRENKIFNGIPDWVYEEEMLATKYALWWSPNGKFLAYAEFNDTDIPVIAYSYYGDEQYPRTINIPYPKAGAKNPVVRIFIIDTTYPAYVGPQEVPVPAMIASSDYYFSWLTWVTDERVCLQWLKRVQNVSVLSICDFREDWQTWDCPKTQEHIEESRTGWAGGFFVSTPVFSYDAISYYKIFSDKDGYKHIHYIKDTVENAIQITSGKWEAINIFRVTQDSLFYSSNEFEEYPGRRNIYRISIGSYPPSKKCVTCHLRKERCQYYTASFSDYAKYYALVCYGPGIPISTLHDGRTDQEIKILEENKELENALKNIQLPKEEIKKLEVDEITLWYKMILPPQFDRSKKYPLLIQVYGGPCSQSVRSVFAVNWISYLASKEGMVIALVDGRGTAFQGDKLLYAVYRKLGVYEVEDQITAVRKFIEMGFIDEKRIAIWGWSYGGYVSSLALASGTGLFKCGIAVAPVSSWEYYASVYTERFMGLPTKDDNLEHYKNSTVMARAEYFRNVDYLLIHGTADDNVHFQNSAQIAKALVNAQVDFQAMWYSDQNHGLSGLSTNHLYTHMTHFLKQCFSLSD
Description: LC-MS/MS cleavage map of FAP digest of 100 kDa recombinant human gelatin. Type of assay: biochemical. Particulars: 100 kDa gelatin digest; for Percentage: share of all occurrences. The protocol:
Human collagen I (Becton Dickinson, Franklin Lakes, N.J.) and recombinant human gelatins of 100 KDa and 8.5 KDa (Fibrogen, San Francisco, Calif.) were dissolved in reaction buffer to a final concentration of 100-300 μg/ml. 0.5-1 μg of FAP was added per 100 μgs of protein substrate. Digestion was done for 4-6 hrs at 37° C. As a positive control trypsin digestion was used. As a negative control, protein solutions were incubated either with BSA or buffer only. Peptide fragments of a size <30 KDa were purified using 30 KDa Microcon spin filter (Millipore, Billerica, Mass.).
Peptides obtained from FAP/gelatin digests were dried using a speedvac (Eppendorf), resuspended in LC/MS loading buffer (3% ACN, 0.1% formic acid), and analyzed using nano-flow LC/MS/MS on an Agilent 1100 series nano-LC system (Agilent) coupled to an LCQ Duo ion trap mass spectrometer (ThermoFinnigan). Peptides were pre-concentrated on a 5 mm Zorbax C18 trap column (Agilent) and then eluted onto a 100×0.075 mm custom-packed Biobasic C18 (ThermoElectron) reversed phase capillary column connected to a laser-pulled electrospray ionization emitter tip (New Objective) at a flowrate of 300 nl/min Peptides were eluted the nanospray source of the LCQ (Proxeon, Denmark) using the following gradient: 0% B at 0 min, 5% B at 8 min, 45% B at 50 min, 90% B at 55 min, 90% B at 60 min (B=0.1% formic acid in acetonitrile) at a spray voltage of 2.5 kV. The LCQ was operated in data-dependent mode using the Xcalibur software (ThermoFinnigan) in which every MS scan (400-1800 m/z) was followed by MS/MS scans (400-1800 m/z) on the 3 most intense ions using an isolation window of ±1.5 Da. Ions selected for MS/MS fragmentation were dynamically excluded for 30 s.
MS/MS data were searched against a collagen FASTA database using the SEQUEST search algorithm built into the Bioworks Browser (ThermoFinnigan) allowing for the variable modification of Methionine oxidation. Peptides were initially filtered in a charge dependent manner using an XCorr filter of 1.5, 2, and 2.5 for singly, doubly, and triply charged peptides. All MS/MS spectra used to identify peptides were manually inspected for validation of y and b-ion series. To quantify the relative abundance of each identified peptide we compared the ion current for each of the observed peptide parent ions from the MS spectra. The contribution of each parent ion to the total ion current was extracted and integrated over the peptide elution peak.
To resolve each particular mass fragment a Liquid Chromatograpy (LC) and Tandem mass spectroscopy (MS-MS) [LC-MS-MS] method was developed. Using this method, peptide fragments from FAP digests of the 8.5 kDa and 100 kDa recombinant gelatin were time-resolved by nano reverse phase LC (FIGS. 12 and 14) and then sequenced using an ion trap mass spectrometer operating in MS/MS mode. Initial methodological issues were worked out using the 8.5 kDa fragment before analyzing the entire 100 kDa protein. MS/MS spectra were searched against the 8.5 kDa and 100 kDa gelatin sequences using the SEQUEST algorithm with no cleavage specificity. Most of the identified cleavage sites in both sized gelatins occurred after Proline. However, FAP cleavage sites in these gelatins were not restricted to Proline alone. FAP was also found to cleave after Ala (e.g. A/A, A/G, A/P, A/R), Asp (e.g. D/G, D/T), Gly (e.g. G/A, G/E, G/L, G/Q, G/P, G/V), Glu (i.e., E/P), Lys (i.e., K/A, K/G), Ser (e.g. S/P) and Val (e.g. V/G).
To identify the most preferentially cleaved sites, we relatively quantified the abundance of each of the identified peptides by integrating the ion current generated by each peptide throughout the chromatogram. After identification of a peptide from a MS/MS spectrum, we extracted the ion current for the parent mass of the ion from the total MS ion chromatogram using a 1.5 Da tolerance window, and then integrated under the peak (FIGS. 12 and 14). […]

Take “A.AGRVGPPGP.S: FAP cleavage fragment, 100 kDa recombinant human gelatin”: the Occurences is given as 2 and the Percentage stood at 0.95.

For the substance “A.GPAGPPGP.I: FAP cleavage fragment, 100 kDa recombinant human gelatin”, the Occurences is 1 and the Percentage was found to be 0.48.

In the case of “A.GPPGAPGAPGAPGP.V: FAP cleavage fragment, 100 kDa recombinant human gelatin”, the Occurences is 1 and the Percentage is reported as 0.48.

On to “A.PGAPGAPGPVGPAGKSGDRGETGP.A: FAP cleavage fragment, 100 kDa recombinant human gelatin”, for which the Occurences amounted to 4 and the Percentage is listed as 1.90.

Turning to “A.PGAPGPVGPAGKSGDRGETGP.A: FAP cleavage fragment, 100 kDa recombinant human gelatin”, the Occurences is on record as 2 and the Percentage is given as 0.95.

With “A.PGDKGESGP.S: FAP cleavage fragment, 100 kDa recombinant human gelatin”, the Occurences is 2 and the Percentage is given as 0.95.

On to “A.PGPVGPAGKSGDRGETGP.A: FAP cleavage fragment, 100 kDa recombinant human gelatin”, for which the Occurences was 1 and the Percentage is 0.48.

“D.GQPGAKGEPGDAGAKGDAGPPGP.A: FAP cleavage fragment, 100 kDa recombinant human gelatin”: the Occurences came to 2 and the Percentage turned out to be 0.95.

In the case of “D.GRPGPPGPPGARGQAG.V: FAP cleavage fragment, 100 kDa recombinant human gelatin”, the Occurences came to 2 and the Percentage came to 0.95.

In the case of “E.PGKQGPSGASGERGPPGP.M: FAP cleavage fragment, 100 kDa recombinant human gelatin”, the Occurences is given as 5 and the Percentage is 2.38.

As for “G.PPGADGQPGAKGEPGDAGAKGDAGPPGP.A: FAP cleavage fragment, 100 kDa recombinant human gelatin”, the Occurences was determined as 2 and the Percentage was 0.95.

Turning to “G.PPGAPGAPGAPGPVGPAGKSGDRGETGP.A: FAP cleavage fragment, 100 kDa recombinant human gelatin”, the Occurences came out at 7 and the Percentage is recorded as 3.33.

Regarding “G.PPGPAGAPGDK.G: FAP cleavage fragment, 100 kDa recombinant human gelatin”, the Occurences amounted to 2 and the Percentage is listed as 0.95.

Regarding “G.PPGPAGAPGDKGESGP.S: FAP cleavage fragment, 100 kDa recombinant human gelatin”, the Occurences is on record as 3 and the Percentage stood at 1.43.

For the substance “G.PPGPAGPAGPPGP.I: FAP cleavage fragment, 100 kDa recombinant human gelatin”, the Occurences worked out at 1 and the Percentage was 0.48.

With “G.PSGEPGKQGPSGASGERGPPGP.M: FAP cleavage fragment, 100 kDa recombinant human gelatin”, the Occurences was determined as 1 and the Percentage was found to be 0.48.

For “G.PTGARGAPGDRGEPGPPGP.A: FAP cleavage fragment, 100 kDa recombinant human gelatin”, the Occurences turned out to be 6 and the Percentage came to 2.86.

As for “P.AGEKGSPGADGPAGAPGTPGP.Q: FAP cleavage fragment, 100 kDa recombinant human gelatin”, the Occurences was found to be 7 and the Percentage worked out at 3.33.

In the case of “P.AGFAGPPGADGQPGAKGEPGDAGAKGDAGPPGP.A: FAP cleavage fragment, 100 kDa recombinant human gelatin”, the Occurences is 8 and the Percentage turned out to be 3.81.

On to “P.AGNPGADGQPGAKGANGAPGIAGAPGFPGARGP.S: FAP cleavage fragment, 100 kDa recombinant human gelatin”, for which the Occurences amounted to 4 and the Percentage was 1.90.

For “P.AGPKGEPGSPGENGAPG.Q: FAP cleavage fragment, 100 kDa recombinant human gelatin”, the Occurences is listed as 1 and the Percentage is 0.48.

Regarding “P.AGPPGAPGAPGAPGP.V: FAP cleavage fragment, 100 kDa recombinant human gelatin”, the Occurences is given as 8 and the Percentage amounted to 3.81.

With “P.AGPPGAPGAPGAPGPVGP.A: FAP cleavage fragment, 100 kDa recombinant human gelatin”, the Occurences was found to be 2 and the Percentage was found to be 0.95.

Turning to “P.AGPPGAPGAPGAPGPVGPAGKSGDRGETGP.A: FAP cleavage fragment, 100 kDa recombinant human gelatin”, the Occurences is listed as 6 and the Percentage was 2.86.

With “P.AGPPGEAGKPGEQGVPGDLGAPGP.S: FAP cleavage fragment, 100 kDa recombinant human gelatin”, the Occurences is on record as 6 and the Percentage is reported as 2.86.

Turning to “P.AGPPGFPGAVGAKGEAGP.Q: FAP cleavage fragment, 100 kDa recombinant human gelatin”, the Occurences was found to be 2 and the Percentage was found to be 0.95.

Take “P.AGPPGPIGNVGAPGAKGARGSAGPPGATGFPGAAGRVGPPGP.S: FAP cleavage fragment, 100 kDa recombinant human gelatin”: the Occurences turned out to be 3 and the Percentage is given as 1.43.

As for “P.AGPTGARGAPGDRGEPGPPGP.A: FAP cleavage fragment, 100 kDa recombinant human gelatin”, the Occurences is on record as 6 and the Percentage was found to be 2.86.

In the case of “P.AGRPGEVGPPGPPGP.A: FAP cleavage fragment, 100 kDa recombinant human gelatin”, the Occurences amounted to 11 and the Percentage worked out at 5.24.

In the case of “P.GGPPGPKGNSGEPGAPGSKGD.T: FAP cleavage fragment, 100 kDa recombinant human gelatin”, the Occurences came out at 1 and the Percentage amounted to 0.48.

Take “P.GPPGAPGP.Q: FAP cleavage fragment, 100 kDa recombinant human gelatin”: the Occurences was found to be 1 and the Percentage came out at 0.48.
